Assay results as given in paper PMC6134095, “Structural Analysis of the Interaction between the Bacterial Cell Division Proteins FtsQ and FtsB” (mBio, 2018).
One block for each binder: values may come before it.

Assays:
[1] = biological target: T1, FtsQ (58–276) and FtsB (22–103) added together (Escherichia coli strain K-12 | E. coli, UniProt P06136 58-276; P0A6S5 22-103); test: SPR; FtsL (58–121) immobilised on a CM5 chip by amide coupling (~3,300 RU); Biacore T200, 20°C; 10 mM HEPES pH 7.4, 150 mM NaCl, 0.4% glycerol; FtsQ (58–276) and FtsB (22–103) from 40 µM each, alone or in combination; conditions: both partners purified
T1 construct: FtsQ, Escherichia coli K-12, periplasmic domain, residues 58-276; as m1; as m2; The two proteins were injected in combination (40 µM each at the start of the dilution series) over immobilised FtsL; also called FtsB and FtsQ; FtsQB complex; source: E. coli C41(DE3), each purified separately (HisTrap, Sephacryl S300), injected in combination

[2] = biological target: the molecule itself; test: crystal structure; FtsQ (58–276) with FtsB (22–103), co-purified complex at 6 mg/ml; P4(1)2(1)2, 2.6 Å, molecular replacement; 0.15 M potassium thiocyanate, 20% PEG 550 MME, 0.1 M sodium cacodylate pH 6.5, 19°C
[3] = biological target: T2, FtsQ (58–276), periplasmic domain of E. coli FtsQ (Escherichia coli strain K-12, UniProt P06136 58-276); test: SPR; FtsQ (58–276) immobilised on a CM5 chip by amide coupling (~1,000 RU); Biacore T200, 20°C; 10 mM HEPES pH 7.4, 150 mM NaCl, 0.4% glycerol; analytes injected 120 s, 600 s dissociation, 1:2 dilution series, triplicate; conditions: both partners purified
T2 construct: FtsQ, Escherichia coli K-12, periplasmic domain (alpha and beta domains), residues 58-276; construct printed as M-58-276-GSH6; No tag cleavage is described; also called FtsQ (residues 58 to 276); Q: M-58-276-GSH6; source: E. coli C41(DE3), purified (HisTrap, Sephacryl S300); not shown: His6, C-terminal, kept
T2 sequence (P06136 58-276): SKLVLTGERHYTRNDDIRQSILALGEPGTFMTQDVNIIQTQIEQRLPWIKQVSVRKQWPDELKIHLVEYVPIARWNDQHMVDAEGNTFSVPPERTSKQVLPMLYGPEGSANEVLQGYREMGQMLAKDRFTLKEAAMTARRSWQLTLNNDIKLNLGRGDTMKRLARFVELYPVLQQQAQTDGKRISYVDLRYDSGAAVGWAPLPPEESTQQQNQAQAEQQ

T1 sequence (P06136 58-276, chain 1 of 2, one chain of several): as the sequence (P06136 58-276) above

Kd [1]: 11 µM
B1: FtsL (58–121), periplasmic domain of E. coli FtsL (domain or fragment, UniProt P0AEN4 58-121, looked up)
chain: HHTRLLTAQREQLVLERDALDIEWRNLILEENALGDHSRVERIATEKLQMQHVDPSQENIVVQK
notes: FtsL, E. coli, periplasmic domain, residues 58-121; Cloned into pET15b like FtsB; source: E. coli C41(DE3), purified (HisTrap, Sephacryl S300)

Kd [3]: 0.8 µM
B2: FtsB (22–103), periplasmic domain of E. coli FtsB (domain or fragment, UniProt P0A6S5 22-103, looked up)
chain: GKNGIHDYTRVNDDVAAQQATNAKLKARNDQLFAEIDDLNGGQEALEERARNELSMTRPGETFYRLVPDASKRAQSAGQNNR
notes: No tag cleavage is described; source: E. coli C41(DE3), purified (HisTrap, Sephacryl S300); not shown: His6, N-terminal, kept
binding result [2]: binds
